According to paper doi:10.1101/843383:

Experiments:
[1] = molecular target: GST-Ubx NES-mutated (Drosophila); assay: pull-down
[2] = molecular target: VC-Ubx^NES (NES-mutated full length Ubx fused to the C-terminal fragment of Venus) (Drosophila); assay: split reporter

| Substance | percent loss of pulled-down Emb against wild type GST-Ubx [1] [%] | percent decrease of BiFC fluorescence in the nucleus against wild type Ubx [2] [%] |
| --- | --- | --- |
| VC-Emb, in S2R+ cell extract (from UniProt Q9TVM2 1-1063) (natural protein) | 30 | – |
| VN-Emb (Embargoed fused to the N-terminal fragment of Venus) (from UniProt Q9TVM2 1-1063) (natural protein) | – | 40 |
